Reference: patent publication US8110187

How the values were obtained:
[1] = target: Cytotoxic Lymphocyte Maturation Factor (CLMF) 75 kDa heterodimer (human) (UniProt P29460); experiment: 125I-CLMF binding to PHA-activated lymphoblasts, supernatant at 1/2 dilution; competitor: CLMF receptor on cells
[2] = target: CLMF receptor on PHA-activated peripheral blood lymphoblasts (human); experiment: Scatchard plot analysis of equilibrium binding of 125I-CLMF to PHA-activated lymphoblasts
Sequence of CLMF receptor on PHA-activated peripheral blood lymphoblasts (human) (Q99665 24-862, chain 2 of 2, other chains not shown): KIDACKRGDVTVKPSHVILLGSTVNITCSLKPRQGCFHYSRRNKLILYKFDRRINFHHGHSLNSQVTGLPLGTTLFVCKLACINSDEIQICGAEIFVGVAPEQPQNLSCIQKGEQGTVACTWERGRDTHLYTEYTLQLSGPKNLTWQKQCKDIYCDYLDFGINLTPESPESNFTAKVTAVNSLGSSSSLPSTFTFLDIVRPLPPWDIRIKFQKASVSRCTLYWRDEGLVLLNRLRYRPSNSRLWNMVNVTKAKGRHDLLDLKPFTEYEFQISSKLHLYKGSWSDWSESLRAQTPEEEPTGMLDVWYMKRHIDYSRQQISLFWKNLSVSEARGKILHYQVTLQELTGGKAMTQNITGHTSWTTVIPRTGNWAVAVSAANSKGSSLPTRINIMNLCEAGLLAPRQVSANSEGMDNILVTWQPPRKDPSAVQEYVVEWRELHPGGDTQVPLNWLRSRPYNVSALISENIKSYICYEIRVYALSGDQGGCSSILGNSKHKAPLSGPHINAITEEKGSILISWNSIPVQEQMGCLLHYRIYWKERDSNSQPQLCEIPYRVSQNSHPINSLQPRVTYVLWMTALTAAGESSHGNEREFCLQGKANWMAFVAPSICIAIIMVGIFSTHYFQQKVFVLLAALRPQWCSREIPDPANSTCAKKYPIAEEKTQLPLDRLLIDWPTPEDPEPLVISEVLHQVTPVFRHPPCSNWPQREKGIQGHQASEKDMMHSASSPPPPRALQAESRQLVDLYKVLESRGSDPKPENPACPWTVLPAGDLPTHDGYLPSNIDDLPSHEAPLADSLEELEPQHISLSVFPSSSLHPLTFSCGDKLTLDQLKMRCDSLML

| Substance | % inhibition of 125I-CLMF binding to the lymphoblasts [1] | Kd [2] |
| --- | --- | --- |
| Control monoclonal antibody | 10% | – |
| Cytotoxic Lymphocyte Maturation Factor (CLMF) 75 kDa heterodimer (from UniProt P29460 23-328; P29459 23-219) (ligand) | – | 200 pM |
